Data reported in the FLAb antibody collection (doi:10.7554/elife.23156).

B1: scFv; the commonest letter at each place (parent)
chain 1: EVKLDETGGGLVQPGRPMKLSCVASGFTFSDYWMNWVRQSPEKGLEWVAQIRNKPYNYETYYSDSVKGRFTISRDDSKSSVYLQMNNLRVEDMGIYYCTGSYYGMDYWGQGTSVTVS
chain 2: DVVMTQTPLSLPVSLGDQASISCRSSQSLVHSNGNTYLRWYLQKPGQSPKVLIYKVSNRFSGVPDRFSGSGSGTDFTLKISRVEAEDLGVYFCSQSTHVPWTFGGGTKLEIK

Columns and labels:
fluorescein = variants of: B1; assay: Kd (Tite-Seq); settings: with fluorescein; format: scFv 4-4-20, heavy + light
[1] = variants of: B1; assay: yeast surface expression (ratio to wild type); higher = more expressed; settings: format: scFv 4-4-20, heavy + light

Variant	Kd (fluorescein) [µM]	yeast surface expression [1]
chain 1 G104Y M105L	≥ 10	0.44
chain 1 F29N S30T M34E	0.311	1.73
chain 1 G104M	≥ 10	0.571
chain 1 D106W G109K	≥ 10	0.167
chain 1 G109M	≥ 10	0.213
chain 1 G109Q	≥ 10	0.391
chain 1 M34N W36A	≥ 10	0.608
chain 1 D31E	0.00278	0.925
chain 1 D31P	≥ 10	0.853
chain 1 G100C Y107E	≥ 10	0.6
chain 1 G104V W108A	≥ 10	0.141
chain 1 F29Y M34K	≥ 10	0.646
chain 1 F29S D31W	≥ 10	0.756
chain 1 F29P V37H	≥ 10	0.626
chain 1 F29P V37W	≥ 10	0.685
chain 1 D31R Y32I	≥ 10	0.818
chain 1 F29I N35R	≥ 10	0.852
chain 1 F29T M34N	≥ 10	0.548
chain 1 D106W Y107F	≥ 10	0.264
chain 1 D31P W33F	≥ 10	0.78
chain 1 F29M V37Y	7.72	1.04
chain 1 D106R	≥ 10	0.451
chain 1 G100Y Y102T	≥ 10	0.662
chain 1 G100E D106Q	≥ 10	0.172
chain 1 M34A	0.00826	0.783
chain 1 M34I	0.00273	0.873

Variant	Kd (fluorescein) [µM]	yeast surface expression [1]
chain 1 F29D V37A	≥ 10	0.907
chain 1 D106I W108R	≥ 10	0.422
chain 1 G104K Y107P G109N	≥ 10	0.307
chain 1 F29C D31Y	≥ 10	0.522
chain 1 D31G Y32D	≥ 10	0.803
chain 1 G100P D106A	≥ 10	0.627
chain 1 G100M S101V	≥ 10	0.549
chain 1 F29K	≥ 10	0.849
chain 1 F29H	3.74	0.884
chain 1 D31C M34E	0.579	0.778
chain 1 F29L N35T	≥ 10	0.76
chain 1 M105A W108L	0.00184	0.505
chain 1 G100N G109R	≥ 10	0.283
chain 1 F29T D31A	0.345	0.838
chain 1 G100V G104F	≥ 10	0.472
chain 1 F29A W36A	≥ 10	0.822
chain 1 D31T V37D	≥ 10	0.511
chain 1 D31H W33P	≥ 10	0.631
chain 1 G100N M105Y	≥ 10	0.462
chain 1 D31V W36G	≥ 10	2.19
chain 1 G100N D106Y	≥ 10	0.146
chain 1 G104T D106T Y107L	≥ 10	0.547
chain 1 D106M W108H	≥ 10	0.556
chain 1 F29W W33S	≥ 10	0.431
chain 1 F29Y Y32A	0.00708	1.02

Now from value to variant, other results behind:

Kd (fluorescein) [µM]	Variant	yeast surface expression [1]
2.88	chain 1 Y102W Y103W	0.645
0.00158	chain 1 T28L S30C	0.839
≥ 10	chain 1 Y32M W36M	0.672
≥ 10	chain 1 Y103T M105H	0.849
0.195	chain 1 T28K V37R	2.19
0.00561	chain 1 Y32F M34F	0.862
≥ 10	chain 1 S30N W36D	0.393
≥ 10	chain 1 T28G W36N	0.456
≥ 10	chain 1 Y103M G109Y	0.265
≥ 10	chain 1 T28C Y32W	0.802
≥ 10	chain 1 Y102A Y103E	1.23
4.14	chain 1 Y102A Y103K	1.15
≥ 10	chain 1 Y103K G104I	0.711
≥ 10	chain 1 Y102V Y103C	0.798
≥ 10	chain 1 S101V M105N	0.675
≥ 10	chain 1 Y102E G104N	0.819
≥ 10	chain 1 Y32I W33T N35A	0.824
≥ 10	chain 1 Y102V G104N	0.817
0.403	chain 1 T28M M34N	0.566
≥ 10	chain 1 Y102P M105K	0.473
≥ 10	chain 1 Y32I N35P	0.0981
0.00293	chain 1 Y102S G109S	1.12

Kd (fluorescein) [µM]	Variant	yeast surface expression [1]
0.021	chain 1 N35W V37G	1.18
≥ 10	chain 1 S101N G104N	0.806
1.81	chain 1 T28S W36R	0.57
≥ 10	chain 1 S30M N35V V37A	0.167
≥ 10	chain 1 Y103D M105Y	1.03
≥ 10	chain 1 W33C M34C W36A	0.449
≥ 10	chain 1 Y103F G109F	0.237
≥ 10	chain 1 W33Y N35R	0.524
≥ 10	chain 1 T28F F29H	0.638
0.0146	chain 1 Y102H W108A	0.528
≥ 10	chain 1 S101R G104T	0.647
0.00672	chain 1 Y103F W108Q	0.382
≥ 10	chain 1 Y103S W108R	0.441
0.02	chain 1 W108I G109F	0.186
0.00251	chain 1 Y102S Y107R	0.667
≥ 10	chain 1 S30N V37W	0.654
0.00104	chain 1 T28C S30K	0.943
0.424	chain 1 T28C S30I	0.651
≥ 10	chain 1 S30H Y32T	0.891
2.23	chain 1 T28I Y32C	0.946
≥ 10	chain 1 N35D	0.922
≥ 10	chain 1 S101Y G104C	0.249

Kd (fluorescein) [µM]	Variant	yeast surface expression [1]
≥ 10	chain 1 S30D W36R	2.14
≥ 10	chain 1 M105H W108D	0.353
≥ 10	chain 1 Y102Q Y103T	1.05
≥ 10	chain 1 T28H W36L	0.454
≥ 10	chain 1 Y107S W108S	0.484
≥ 10	chain 1 W33I V37S	0.617
≥ 10	chain 1 S101V Y107H	0.556
≥ 10	chain 1 T28Y Y32K	0.818
≥ 10	chain 1 S101W D106S	0.516
≥ 10	chain 1 S101D G109I	0.22
0.11	chain 1 T28W D31Y	0.371
0.0139	chain 1 T28W F29M	0.897
≥ 10	chain 1 Y32V V37L	0.677
≥ 10	chain 1 S101H Y107R W108C	0.22
≥ 10	chain 1 N35R W36K	2.76
≥ 10	chain 1 Y107N G109K	0.306
≥ 10	chain 1 M105P G109T	0.291
≥ 10	chain 1 Y103D Y107C	0.646
≥ 10	chain 1 Y107I G109Q	0.442
≥ 10	chain 1 Y102H G109W	0.254
≥ 10	chain 1 M105V W108H	0.493
